{"source": "patent US20180162947A1", "about": "(UCB, published 2018)", "binders": {"B1": {"name": "Ab969.g2 (969gH2gL7) (antibody, human IgG4 S228P, kappa, V domains shown)", "VH": "EVTLKESGPALVKPTQTLTLTCTFSGFSLTTYGMGVGWIRQPPGKALEWLANIWWDDDKYYNPSLKNRLTISKDTSKNQVVLTMTNMDPVDTATYYCARIGPIKYPTAPYRYFDFWGQGTMVTVSS", "VL": "DIQMTQSPSSLSASVGDRVTITCLASEDIYDNLAWYQQKPGKAPKLLIYYASSLQDGVPSRFSGSGSGTDYTLTISSLQPEDFATYYCLQDSEYPWTFGGGTKVEIKR", "notes": "Full-length humanised IgG4 (S241P), human kappa (Km3 allotype); also called 969gH2gL7 DG; Ab969.2"}, "B2": {"name": "chimeric antibody 969 (rat variable regions, human gamma-4 heavy chain constant region and human kappa chain constant region) (antibody, human IgG4, V domains shown)", "VH": "QVTLKESGPGILQPSQTLSLTCTFSGFSLTTYGMGVGWIRQPSGKGLEWLANIWWDDDKYYNPSLKNRLTISKDTSNNQAFLKLTNVHTSDSATYYCARIGPIKYPTAPYRYFDFWGPGTMVTVSS", "VL": "DIQMTQSPASLSASLGETVSIECLASEDIYDNLAWYQKKPGKSPHLLIYYASSLQDGVPSRFSGSGSGTQYSLKINSLESEDAATYFCLQDSEYPWTFGGGTKLELKR", "modifications": "Alexa-488 label in the cell-based affinity assay; not carried by the letters.", "notes": "Full-length human IgG4 (S241P)/kappa chimeric; also called Ab969"}}, "key": {"[1]": {"target": "T1, mouse CSF-1R (form not stated) (mouse, UniProt P09581 20-511, limits assumed)", "T1 construct": "also called murine CSF-1R", "T1 sequence (looked up)": "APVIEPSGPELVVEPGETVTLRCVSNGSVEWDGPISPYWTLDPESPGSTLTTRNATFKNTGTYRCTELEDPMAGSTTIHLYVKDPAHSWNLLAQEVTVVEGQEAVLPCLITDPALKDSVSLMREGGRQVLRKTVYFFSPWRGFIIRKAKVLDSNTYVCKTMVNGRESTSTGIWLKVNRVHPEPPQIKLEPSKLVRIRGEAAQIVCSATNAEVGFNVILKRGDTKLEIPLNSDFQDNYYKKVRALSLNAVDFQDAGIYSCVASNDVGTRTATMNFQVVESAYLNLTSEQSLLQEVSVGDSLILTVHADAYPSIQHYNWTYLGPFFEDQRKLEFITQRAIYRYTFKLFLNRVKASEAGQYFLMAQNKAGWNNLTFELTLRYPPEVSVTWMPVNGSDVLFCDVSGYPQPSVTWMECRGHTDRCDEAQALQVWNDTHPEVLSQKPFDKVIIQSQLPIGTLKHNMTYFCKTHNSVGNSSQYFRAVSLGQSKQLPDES", "assay": "not described"}, "[2]": {"target": "T2, recombinant human CSF-1R (form not stated) (human, UniProt P07333 20-512, limits assumed)", "T2 construct": "for the ELISA no species is stated; also called recombinant CSF-1R; recombinant CSF-1R protein", "T2 sequence (P07333 20-512 limits assumed)": "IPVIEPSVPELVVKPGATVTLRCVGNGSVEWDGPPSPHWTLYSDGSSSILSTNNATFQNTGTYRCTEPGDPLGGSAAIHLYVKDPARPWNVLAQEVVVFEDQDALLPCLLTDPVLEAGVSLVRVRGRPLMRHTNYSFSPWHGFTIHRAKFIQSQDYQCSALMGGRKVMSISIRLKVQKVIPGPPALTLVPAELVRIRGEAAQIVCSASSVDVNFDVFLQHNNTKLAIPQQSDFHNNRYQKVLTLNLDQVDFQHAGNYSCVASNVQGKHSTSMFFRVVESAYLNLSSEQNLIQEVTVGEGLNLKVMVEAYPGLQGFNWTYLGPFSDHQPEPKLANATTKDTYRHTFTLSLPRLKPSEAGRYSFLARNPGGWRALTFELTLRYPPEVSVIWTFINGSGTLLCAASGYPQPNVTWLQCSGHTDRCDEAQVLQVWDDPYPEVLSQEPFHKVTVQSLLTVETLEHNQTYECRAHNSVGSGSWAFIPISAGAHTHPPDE", "assay": "BIAcore, purified antibody, experiment 2"}, "[3]": {"target": "T3, recombinant human CSF-1R/Fc fusion protein (R&D Systems) (human, UniProt P07333 20-517)", "T3 construct": "extracellular domain; Bought from R&D Systems; also called hCSF-1R/Fc; not shown: Fc part of the bought fusion protein, not described", "T3 sequence (P07333 20-517)": "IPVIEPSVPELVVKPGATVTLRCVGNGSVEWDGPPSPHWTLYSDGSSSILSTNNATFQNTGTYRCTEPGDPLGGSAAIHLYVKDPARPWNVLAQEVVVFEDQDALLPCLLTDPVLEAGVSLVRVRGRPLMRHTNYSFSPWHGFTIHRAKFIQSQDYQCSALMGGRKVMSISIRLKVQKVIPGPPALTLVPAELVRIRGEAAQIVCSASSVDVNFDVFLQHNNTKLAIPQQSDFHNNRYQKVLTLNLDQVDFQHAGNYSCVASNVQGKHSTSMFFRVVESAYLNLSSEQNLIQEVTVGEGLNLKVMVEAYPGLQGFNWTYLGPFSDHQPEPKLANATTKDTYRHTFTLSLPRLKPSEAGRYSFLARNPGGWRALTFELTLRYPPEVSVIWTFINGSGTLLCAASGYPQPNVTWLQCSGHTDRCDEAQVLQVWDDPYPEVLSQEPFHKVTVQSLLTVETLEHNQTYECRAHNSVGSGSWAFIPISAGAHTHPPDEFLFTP", "assay": "BIAcore 3000, antibody captured by anti-human IgG F(ab')2, hCSF-1R/Fc in solution, 25 C", "description": "Antibodies were tested for their ability to bind CSF-1R in a BIAcore assay by measurement of binding kinetics to a purified recombinant CSF-1R/Fc fusion protein.\n(§1) The assay format was capture of the anti-CSF-1R antibodies by immobilised anti-human IgG,F(ab′)₂, then a titration of hCSF-1R/Fc over the captured surface. BIA (Biomolecular Interaction Analysis) was performed using a BIAcore 3000 (GE Healthcare Bio-Sciences AB). All experiments were performed at 25° C. An AffiniPure F(ab′)₂ fragment goat anti-human IgG, F(ab′)₂ fragment specific (Jackson ImmunoResearch), was immobilised on a CM5 Sensor Chip (GE Healthcare Bio-Sciences AB) via amine coupling chemistry to a level of ˜5000 response units (RU). HBS-EP buffer (10 mM HEPES, pH 7.4, 0.15M NaCl, 3 mM EDTA, 0.005% Surfactant P20, GE Healthcare Bio-Sciences AB) was used as the running buffer with a flow rate of 10 μl/min.\nRecombinant human CSF-1R/Fc (R&D Systems) was passed over the captured anti-CSF-1R antibody at 5 nM at a flow rate of 30 ul/min for 5 min, then the flow rate was increased to 100 ul/min for 30 min for the dissociation phase. The injection at 5 nM was performed twice along with a corresponding buffer control. These sensorgrams were used to generate the dissociation rate. […] These sensorgrams were used to generate the association rate. The surface was regenerated at a flow rate of 10 ul/min by a 10 ul injection of 40 mM HCl followed by a 5 ul injection of 10 mM NaOH. Double referenced background subtracted binding curves were analysed using the BIAevaluation software (version 4.1) following standard procedures. Kinetic parameters were determined from the fitting algorithm."}, "[4]": {"target": "T4, human CSF-1R on cells (THP-1 cells, transfected HEK293F cells, primary human monocytes) (human, UniProt P07333 20-972)", "T4 construct": "whole, on cells; also called hCSF-1R; cell-surface CSF-1R", "T4 sequence (P07333 20-972)": "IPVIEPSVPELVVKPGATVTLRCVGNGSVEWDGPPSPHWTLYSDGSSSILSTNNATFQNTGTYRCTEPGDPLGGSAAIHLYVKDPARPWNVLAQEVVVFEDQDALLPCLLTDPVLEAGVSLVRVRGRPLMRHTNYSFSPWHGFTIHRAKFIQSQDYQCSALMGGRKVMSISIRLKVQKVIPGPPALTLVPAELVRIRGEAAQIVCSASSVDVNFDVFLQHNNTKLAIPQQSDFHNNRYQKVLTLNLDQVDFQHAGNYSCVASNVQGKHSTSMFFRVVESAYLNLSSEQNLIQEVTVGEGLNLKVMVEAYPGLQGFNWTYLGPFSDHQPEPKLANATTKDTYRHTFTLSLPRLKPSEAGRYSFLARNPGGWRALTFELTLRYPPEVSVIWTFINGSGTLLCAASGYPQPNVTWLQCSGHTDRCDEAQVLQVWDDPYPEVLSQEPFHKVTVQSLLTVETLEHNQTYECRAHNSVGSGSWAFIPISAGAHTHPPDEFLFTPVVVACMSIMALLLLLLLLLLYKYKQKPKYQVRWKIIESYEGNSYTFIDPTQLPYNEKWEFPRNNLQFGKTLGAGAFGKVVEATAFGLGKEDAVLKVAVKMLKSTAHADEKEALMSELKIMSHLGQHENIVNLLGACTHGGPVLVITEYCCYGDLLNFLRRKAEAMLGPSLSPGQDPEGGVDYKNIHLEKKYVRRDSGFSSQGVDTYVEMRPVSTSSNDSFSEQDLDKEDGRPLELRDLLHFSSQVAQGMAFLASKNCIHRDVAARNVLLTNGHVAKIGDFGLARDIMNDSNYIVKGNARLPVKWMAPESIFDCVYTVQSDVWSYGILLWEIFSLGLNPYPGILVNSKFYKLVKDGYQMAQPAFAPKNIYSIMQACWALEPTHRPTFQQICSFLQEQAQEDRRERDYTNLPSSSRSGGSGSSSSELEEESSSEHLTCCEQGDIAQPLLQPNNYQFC", "assay": "inhibition of CSF-1 binding to THP-1 cells"}, "[5]": {"target": "T2, recombinant human CSF-1R (form not …)", "assay": "ELISA ligand-blocking assay, antibody pre-mixed with 1 ng/ml CSF-1 (competitor), plate-bound CSF-1R", "excerpt": "(§2) This method is from here on referred to as the ‘ELISA ligand-blocking assay’."}, "[6]": {"target": "T4, human CSF-1R on cells (THP-1 cells, …)", "assay": "cell-based or functional assay"}, "[7]": {"target": "T4, human CSF-1R on cells (THP-1 cells, …)", "assay": "quantitative flow cytometry on THP-1 cells, Alexa-488-labelled antibody"}, "[8]": {"target": "T4, human CSF-1R on cells (THP-1 cells, …)", "assay": "cell-based or functional assay", "remark": "listed apart in the source"}, "[9]": {"target": "T2, recombinant human CSF-1R (form not …)", "assay": "ELISA ligand-blocking assay, antibody pre-mixed with 10 ng/ml CSF-1 (competitor), plate-bound CSF-1R", "excerpt": "as §2"}, "[10]": {"target": "T4, human CSF-1R on cells (THP-1 cells, …)", "assay": "cell-based or functional assay", "remark": "listed apart in the source"}, "[11]": {"target": "T2, recombinant human CSF-1R (form not …)", "assay": "BIAcore, recombinant CSF-1R protein"}, "[12]": {"target": "T2, recombinant human CSF-1R (form not …)", "assay": "BIAcore, DG/SG comparison, crude cell supernatant"}, "[13]": {"target": "T2, recombinant human CSF-1R (form not …)", "assay": "BIAcore, purified antibody, mean"}, "[14]": {"target": "T2, recombinant human CSF-1R (form not …)", "assay": "BIAcore, experiment 2 of 3", "description": "as §1"}, "[15]": {"target": "T2, recombinant human CSF-1R (form not …)", "assay": "ELISA ligand-blocking assay, antibody pre-mixed with 100 ng/ml CSF-1 (competitor), plate-bound CSF-1R", "excerpt": "as §2"}, "[16]": {"target": "T2, recombinant human CSF-1R (form not …)", "assay": "BIAcore, purified antibody, experiment 1"}, "[17]": {"target": "T2, recombinant human CSF-1R (form not …)", "assay": "BIAcore, experiment 1 of 3", "description": "as §1"}, "[18]": {"target": "T2, recombinant human CSF-1R (form not …)", "assay": "BIAcore, mean of 3 (fourth row, unlabelled)", "description": "as §1"}, "[19]": {"target": "T2, recombinant human CSF-1R (form not …)", "assay": "BIAcore, humanisation stage, crude cell supernatant"}, "[20]": {"target": "T2, recombinant human CSF-1R (form not …)", "assay": "BIAcore, experiment 3 of 3", "description": "as §1"}}, "note": "“And” between values parts separate entries of the source, which are not always exact repeats. Identical values can stand only once.", "data": [{"binder": "B1", "values": [{"measurement": "binding result", "setting": "[1]", "result": "no binding"}]}, {"binder": "B2", "values": [{"measurement": "Kd", "setting": "[2]", "result": 4.2, "unit": "pM"}, {"measurement": "koff", "setting": "[2]", "result": "9.1e-06", "unit": "s⁻¹"}, {"measurement": "kon", "setting": "[2]", "result": "2.16e+06", "unit": "M⁻¹ s⁻¹"}, {"measurement": "Kd", "setting": "[3]", "result": "9.65 pM and 9.6 pM"}, {"measurement": "koff", "setting": "[3]", "result": "2.49e-05", "unit": "s⁻¹"}, {"measurement": "kon", "setting": "[3]", "result": "2.58e+06", "unit": "M⁻¹ s⁻¹"}, {"measurement": "IC50", "setting": "[4]", "result": 0.00289, "unit": "µg/mL"}, {"measurement": "IC50", "setting": "[5]", "result": 0.0128, "unit": "µg/mL"}, {"measurement": "mean IC50, MCP-1 inhibition assay, primary human monocytes, 100 ng/ml CSF-1", "setting": "[6]", "result": 0.0246, "unit": "µg/mL"}, {"measurement": "Kd", "setting": "[7]", "result": 2200, "unit": "pM"}, {"measurement": "IC50, MCP-1 inhibition assay, Donor 1", "setting": "[8]", "result": 0.031, "unit": "µg/mL"}, {"measurement": "IC50, MCP-1 inhibition assay, Donor 2", "setting": "[8]", "result": 0.0057, "unit": "µg/mL"}, {"measurement": "IC50, MCP-1 inhibition assay, Donor 3", "setting": "[8]", "result": 0.0594, "unit": "µg/mL"}, {"measurement": "IC50, MCP-1 inhibition assay, Donor 4", "setting": "[8]", "result": 0.0417, "unit": "µg/mL"}, {"measurement": "IC50, MCP-1 inhibition assay, Donor 5", "setting": "[8]", "result": 0.0209, "unit": "µg/mL"}, {"measurement": "IC50, MCP-1 inhibition assay, Donor 6", "setting": "[8]", "result": 0.007, "unit": "µg/mL"}, {"measurement": "IC50", "setting": "[9]", "result": 0.0793, "unit": "µg/mL"}, {"measurement": "IC50, IL-34-dependent human monocyte assay (MCP-1 by ELISA), 100 ng/ml IL-34, Donor 1", "setting": "[10]", "result": 0.0201, "unit": "µg/mL"}, {"measurement": "IC50, IL-34-dependent human monocyte assay (MCP-1 by ELISA), 100 ng/ml IL-34, Donor 2", "setting": "[10]", "result": 0.00979, "unit": "µg/mL"}, {"measurement": "Kd", "setting": "[11]", "result": 4.8, "unit": "pM"}, {"measurement": "Kd", "setting": "[12]", "result": 2, "unit": "pM"}, {"measurement": "koff", "setting": "[12]", "result": "8.53e-06", "unit": "s⁻¹"}, {"measurement": "kon", "setting": "[12]", "result": "4.35e+06", "unit": "M⁻¹ s⁻¹"}, {"measurement": "Kd", "setting": "[13]", "result": 4.3, "unit": "pM"}, {"measurement": "koff", "setting": "[13]", "result": "9.3e-06", "unit": "s⁻¹"}, {"measurement": "kon", "setting": "[13]", "result": "2.16e+06", "unit": "M⁻¹ s⁻¹"}, {"measurement": "Kd", "setting": "[14]", "result": 3.9, "unit": "pM"}, {"measurement": "koff", "setting": "[14]", "result": "1.1e-05", "unit": "s⁻¹"}, {"measurement": "kon", "setting": "[14]", "result": "2.79e+06", "unit": "M⁻¹ s⁻¹"}, {"measurement": "IC50", "setting": "[15]", "result": 0.829, "unit": "µg/mL"}, {"measurement": "Kd", "setting": "[16]", "result": 4.4, "unit": "pM"}, {"measurement": "koff", "setting": "[16]", "result": "9.49e-06", "unit": "s⁻¹"}, {"measurement": "kon", "setting": "[16]", "result": "2.16e+06", "unit": "M⁻¹ s⁻¹"}, {"measurement": "Kd", "setting": "[17]", "result": 3.6, "unit": "pM"}, {"measurement": "koff", "setting": "[17]", "result": "1.03e-05", "unit": "s⁻¹"}, {"measurement": "kon", "setting": "[17]", "result": "2.83e+06", "unit": "M⁻¹ s⁻¹"}, {"measurement": "Kd", "setting": "[18]", "result": 3.7, "unit": "pM"}, {"measurement": "koff", "setting": "[18]", "result": "1.03e-05", "unit": "s⁻¹"}, {"measurement": "kon", "setting": "[18]", "result": "2.77e+06", "unit": "M⁻¹ s⁻¹"}, {"measurement": "Kd", "setting": "[19]", "result": 3.5, "unit": "pM"}, {"measurement": "koff", "setting": "[19]", "result": "7.99e-06", "unit": "s⁻¹"}, {"measurement": "kon", "setting": "[19]", "result": "2.31e+06", "unit": "M⁻¹ s⁻¹"}, {"measurement": "Kd", "setting": "[20]", "result": 3.6, "unit": "pM"}, {"measurement": "koff", "setting": "[20]", "result": "9.51e-06", "unit": "s⁻¹"}, {"measurement": "kon", "setting": "[20]", "result": "2.68e+06", "unit": "M⁻¹ s⁻¹"}]}]}
